Sequences and labels used below:
B1: 373_F08 (antibody, V domains shown)
VH: EVQLLESGGGLVQPGGSLRLSCAASGFTFSSYSMNWVRQAPGKGLEWVSGINYNGGYTSYADSVKGRFTISRDNSKNTLYLQMNSLRAEDTAVYYCARGANWHDTALDYWGQGTLVTVSS
VL: DIQMTQSPSSLSASVGDRVTITCRASQSILTYLNWYQQKPGKAPKLLIYAATSRASGVPSRFSGSGSGTDFTLTISSLQPEDFATYYCQQSYDTPLTFGGGTKVEIK
B2: 369_C12 (antibody, V domains shown)
VH: EVQLLESGGGLVQPGGSLRLSCAASGFTFSSYGMNWVRQAPGKGLEWVANINYNGGYKGYADSVKGRFTISRDNSKNTLYLQMNSLRAEDTAVYYCARGATWHDTHLDYWGQGTLVTVSS
VL: DIQMTQSPSSLSASVGDRVTITCRASQSILTYLNWYQQKPGKAPKLLIYAATSRHSGVPSRFSGSGSGTDFTLTISSLQPEDFATYYCQQSYDTPLTFGGGTKVEIK
B3: 369_H08 (antibody, V domains shown)
VH: EVQLLESGGGLVQPGGSLRLSCAASGFTFSSYSMNWVRQAPGKGLEWVAGINYNSGYKSYADSVKGRFTISRDNSKNTLYLQMNSLRAEDTAVYYCARGATWHDTHLDYWGQGTLVTVSS
VL: DIQMTQSPSSLSASVGDRVTITCRASQSILSYVNWYQQKPGKAPKLVIYAATSLASGVPSRFSGSGSGTDFTLTISSLQPEDFATYYCQQSYESPLTFGGGTKVEIK
B4: 369_H12 (antibody, V domains shown)
VH: EVQLLESGGGLVQPGGSLRLSCAASGFTFSSYSMNWVRQAPGKGLEWVAGINYNGGYKSYADSVKGRFTISRDNSKNTLYLQMNSLRAEDTAVYYCARGATWHDTHLDYWGQGTLVTVSS
VL: DIQMTQSPSSLSASVGDRVTITCRASQSIVTYVNWYQQKPGKAPKLVIYAATSRASGVPSRFSGSGSGTDFTLTISSLQPEDFATYYCQQSYDSPLTFGGGTKVEIK
B5: 370_C06 (antibody, V domains shown)
VH: EVQLLESGGGLVQPGGSLRLSCAASGFTFSSYSMNWVRQAPGKGLEWVANINYNGGYKSYADSVKGRFTISRDNSKNTLYLQMNSLRAEDTAVYYCARGATWHDTHLDYWGQGTLVTVSS
VL: DIQMTQSPSSLSASVGDRVTITCRASQSILTYVNWYQQKPGKAPKLLIYAASSLQSGVPSRFSGSGSGTDFTLTISSLQPEDFATYYCQQSYSTPLTFGGGTKVEIK
B6: 367_A02 (antibody, V domains shown)
VH: EVQLLESGGGLVQPGGSLRLSCAASGFTFDSYGMNWVRQAPGKGLEWVSSINYNSGYKGYADSVKGRFTISRDNSKNTLYLQMNSLRAEDTAVYYCARGATWHDTHLDYWGQGTLVTVSS
VL: DIQMTQSPSSLSASVGDRVTITCRASQSIISYLNWYQQKPGKAPKLLIYAVTSRASGVPSRFSGSGSGTDFTLTISSLQPEDFATYYCQQSYDTPLTFGGGTKVEIK
B7: 369_F09 (antibody, V domains shown)
VH: EVQLLESGGGLVQPGGSLRLSCAASGFTFSSYGMHWVRQAPGKGLEWVAGINYNGGYTSYADSVKGRFTISRDNSKNTLYLQMNSLRAEDTAVYYCARGATWHDTHLDYWGQGTLVTVSS
VL: DIQMTQSPSSLSASVGDRVTITCRASQSILTYVNWYQQKPGKAPKLLIYAATSRASGVPSRFSGSGSGTDFTLTISSLQPEDFATYYCQQSYDSPLTFGGGTKVEIK
B8: 368_G03 (antibody, V domains shown)
VH: EVQLLESGGGLVQPGGSLRLSCAASGFTFSSYSMNWVRQAPGKGLEWVSGINYNSGYTSYADSVKGRFTISRDNSKNTLYLQMNSLRAEDTAVYYCARGATWHDTALDYWGQGTLVTVSS
VL: DIQMTQSPSSLSASVGDRVTITCRASQSILSYLNWYQQKPGKAPKLVIYAATSRASGVPSRFSGSGSGTDFTLTISSLQPEDFATYYCQQSYDTPLTFGGGTKVEIK
B9: 374_B04 (antibody, V domains shown)
VH: EVQLLESGGGLVQPGGSLRLSCAASGFTFSSYSMNWVRQAPGKGLEWVSNINYNSGYTGYADSVKGRFTISRDNSKNTLYLQMNSLRAEDTAVYYCARSANWHDTALDYWGQGTLVTVSS
VL: DIQMTQSPSSLSASVGDRVTITCRASQSIVSYLNWYQQKPGKAPKLLIYAVTSRASGVPSRFSGSGSGTDFTLTISSLQPEDFATYYCQQSYESPLTFGGGTKVEIK
B10: 372_F03 (antibody, V domains shown)
VH: EVQLLESGGGLVQPGGSLRLSCAASGFTFSSYGMNWVRQAPGKGLEWVAGINYNGGYTSYADSVKGRFTISRDNSKNTLYLQMNSLRAEDTAVYYCARSANWHDTALDYWGQGTLVTVSS
VL: DIQMTQSPSSLSASVGDRVTITCRASQSILSYLNWYQQKPGKAPKLVIYAATSRASGVPSRFSGSGSGTDFTLTISSLQPEDFATYYCQQSYDTPLTFGGGTKVEIK
B11: 374_E05 (antibody, V domains shown)
VH: EVQLLESGGGLVQPGGSLRLSCAASGFTFSSYSMNWVRQAPGKGLEWVAGINYNGGYTSYADSVKGRFTISRDNSKNTLYLQMNSLRAEDTAVYYCARSANWHDTALDYWGQGTLVTVSS
VL: DIQMTQSPSSLSASVGDRVTITCRASQSILSFVNWYQQKPGKAPKLVIYAATSRASGVPSRFSGSGSGTDFTLTISSLQPEDFATYYCQQSYNLPLTFGGGTKVEIK
B12: 370_H01 (antibody, V domains shown)
VH: EVQLLESGGGLVQPGGSLRLSCAASGFTFSSYSMNWVRQAPGKGLEWVSGINYNSGYKGYADSVKGRFTISRDNSKNTLYLQMNSLRAEDTAVYYCARSANWHDTALDYWGQGTLVTVSS
VL: DIQMTQSPSSLSASVGDRVTITCRASQSIISYLNWYQQKPGKAPKLLIYAVTSRASGVPSRFSGSGSGTDFTLTISSLQPEDFATYYCQQSYDTPLTFGGGTKVEIK
B13: 371_B07 (antibody, V domains shown)
VH: EVQLLESGGGLVQPGGSLRLSCAASGFTFDSYSMNWVRQAPGKGLEWVAGINYNGGYTSYADSVKGRFTISRDNSKNTLYLQMNSLRAEDTAVYYCARSANWHDTALDYWGQGTLVTVSS
VL: DIQMTQSPSSLSASVGDRVTITCRASQSILTYVNWYQQKPGKAPKLLIYAATSRASGVPSRFSGSGSGTDFTLTISSLQPEDFATYYCQQSYELPLTFGGGTKVEIK
B14: 376_C06 (antibody, V domains shown)
VH: EVQLLESGGGLVQPGGSLRLSCAASGFTFSSYGMNWVRQAPGKGLEWVAGINYNGGYTSYADSVKGRFTISRDNSKNTLYLQMNSLRAEDTAVYYCARSATWHDTALDYWGQGTLVTVSS
VL: DIQMTQSPSSLSASVGDRVTITCRASQSILSYLNWYQQKPGKAPKLVIYAATSRASGVPSRFSGSGSGTDFTLTISSLQPEDFATYYCQQSYDSPLTFGGGTKVEIK
B15: 370_C05 (antibody, V domains shown)
VH: EVQLLESGGGLVQPGGSLRLSCAASGFTFSSYSMNWVRQAPGKGLEWVAGINYNSGYTGYADSVKGRFTISRDNSKNTLYLQMNSLRAEDTAVYYCARSANWHDTALDYWGQGTLVTVSS
VL: DIQMTQSPSSLSASVGDRVTITCRASQSILSYVNWYQQKPGKAPKLVIYAATSRASGVPSRFSGSGSGTDFTLTISSLQPEDFATYYCQQSYNSPLTFGGGTKVEIK
B16: 372_F09 (antibody, V domains shown)
VH: EVQLLESGGGLVQPGGSLRLSCAASGFTFDSYSMNWVRQAPGKGLEWVANINYNSGYKGYADSVKGRFTISRDNSKNTLYLQMNSLRAEDTAVYYCARSANWHDTALDYWGQGTLVTVSS
VL: DIQMTQSPSSLSASVGDRVTITCRASQSILTYLNWYQQKPGKAPKLVIYAATSLASGVPSRFSGSGSGTDFTLTISSLQPEDFATYYCQQSYSSPLTFGGGTKVEIK
B17: 373_B04 (antibody, V domains shown)
VH: EVQLLESGGGLVQPGGSLRLSCAASGFTFSSYGMNWVRQAPGKGLEWVAGINYNSGYKGYADSVKGRFTISRDNSKNTLYLQMNSLRAEDTAVYYCARSANWHDTALDYWGQGTLVTVSS
VL: DIQMTQSPSSLSASVGDRVTITCRASQSILTYLNWYQQKPGKAPKLLIYAATSRASGVPSRFSGSGSGTDFTLTISSLQPEDFATYYCQQSYETPLTFGGGTKVEIK
B18: 374_C08 (antibody, V domains shown)
VH: EVQLLESGGGLVQPGGSLRLSCAASGFTFDSYGMNWVRQAPGKGLEWVSGINYNSGYKSYADSVKGRFTISRDNSKNTLYLQMNSLRAEDTAVYYCARSATWHDTALDYWGQGTLVTVSS
VL: DIQMTQSPSSLSASVGDRVTITCRASQSILSYVNWYQQKPGKAPKLLIYAVTSRASGVPSRFSGSGSGTDFTLTISSLQPEDFATYYCQQSYDSPLTFGGGTKVEIK
B19: 369_H06 (antibody, V domains shown)
VH: EVQLLESGGGLVQPGGSLRLSCAASGFTFSSYGMNWVRQAPGKGLEWVANINYNGGYKSYADSVKGRFTISRDNSKNTLYLQMNSLRAEDTAVYYCARSANWHDTALDYWGQGTLVTVSS
VL: DIQMTQSPSSLSASVGDRVTITCRASQSIVSYVNWYQQKPGKAPKLLIYAATSRASGVPSRFSGSGSGTDFTLTISSLQPEDFATYYCQQSYDTPLTFGGGTKVEIK
B20: 370_A12 (antibody, V domains shown)
VH: EVQLLESGGGLVQPGGSLRLSCAASGFTFSSYGMNWVRQAPGKGLEWVAGINYNGGYTSYADSVKGRFTISRDNSKNTLYLQMNSLRAEDTAVYYCARSANWHDTALDYWGQGTLVTVSS
VL: DIQMTQSPSSLSASVGDRVTITCRASQSILTYLNWYQQKPGKAPKLLIYAATSLASGVPSRFSGSGSGTDFTLTISSLQPEDFATYYCQQSYDSPLTFGGGTKVEIK
B21: 372_A04 (antibody, V domains shown)
VH: EVQLLESGGGLVQPGGSLRLSCAASGFTFDSYSMNWVRQAPGKGLEWVSGINYNSGYTSYADSVKGRFTISRDNSKNTLYLQMNSLRAEDTAVYYCARSANWHDTALDYWGQGTLVTVSS
VL: DIQMTQSPSSLSASVGDRVTITCRASQSILTYLNWYQQKPGKAPKLVIYAATSRASGVPSRFSGSGSGTDFTLTISSLQPEDFATYYCQQSYETPLTFGGGTKVEIK

One assay has as its target ACVR2A on primary human myotubes (human, UniProt P27037 20-513). Nature of the assay: cell-based or functional assay.
Target sequence in this assay (P27037 20-513): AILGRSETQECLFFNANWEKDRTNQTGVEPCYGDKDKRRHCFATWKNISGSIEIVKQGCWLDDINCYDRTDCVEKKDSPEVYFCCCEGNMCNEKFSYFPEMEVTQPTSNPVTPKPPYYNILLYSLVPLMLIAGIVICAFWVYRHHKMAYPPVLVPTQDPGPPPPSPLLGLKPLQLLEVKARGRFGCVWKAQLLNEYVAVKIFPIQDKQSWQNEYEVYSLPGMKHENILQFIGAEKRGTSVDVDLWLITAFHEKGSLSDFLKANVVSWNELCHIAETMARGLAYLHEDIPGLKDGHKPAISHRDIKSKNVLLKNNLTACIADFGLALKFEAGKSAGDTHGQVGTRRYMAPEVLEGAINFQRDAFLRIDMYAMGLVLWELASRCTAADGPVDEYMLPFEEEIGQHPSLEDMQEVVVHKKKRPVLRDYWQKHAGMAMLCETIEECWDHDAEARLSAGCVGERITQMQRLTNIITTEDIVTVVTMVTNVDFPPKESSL
For B1, the “Phospho-SMAD3 Human Skeletal Muscle GDF8” value was determined as 0.005.

In the case of B2, the “Phospho-SMAD3 Human Skeletal Muscle GDF8” value worked out at 0.0094.

With B3, the “Phospho-SMAD3 Human Skeletal Muscle GDF8” value stood at 0.0308.

Consider B4, for which the “Phospho-SMAD3 Human Skeletal Muscle GDF8” value worked out at 0.0303.

Consider B5, for which the “Phospho-SMAD3 Human Skeletal Muscle GDF8” value was determined as 0.0111.

As for B6, the “Phospho-SMAD3 Human Skeletal Muscle GDF8” value was 0.159.

As for B7, the “Phospho-SMAD3 Human Skeletal Muscle GDF8” value was 0.0325.

As to B8, the “Phospho-SMAD3 Human Skeletal Muscle GDF8” value was determined as 0.299.

For the next assay the target is unchanged. Nature of the assay: cell-based or functional assay. This is another data set of the same source.
Target sequence in this assay (P27037 20-513): as above
With B9, the “Phospho-SMAD3 Human Skeletal Muscle GDF8” value was 0.0093.

In the case of B10, the “Phospho-SMAD3 Human Skeletal Muscle GDF8” value is 0.0646.

In the case of B11, the “Phospho-SMAD3 Human Skeletal Muscle GDF8” value was found to be 0.0497.

Take B12: the “Phospho-SMAD3 Human Skeletal Muscle GDF8” value was found to be 0.0093.

With B13, the “Phospho-SMAD3 Human Skeletal Muscle GDF8” value worked out at 0.0402.

Consider B14, for which the “Phospho-SMAD3 Human Skeletal Muscle GDF8” value was found to be 0.0107.

On to B15, for which the “Phospho-SMAD3 Human Skeletal Muscle GDF8” value was determined as 0.0082.

Turning to B16, the “Phospho-SMAD3 Human Skeletal Muscle GDF8” value is 0.018.

With B17, the “Phospho-SMAD3 Human Skeletal Muscle GDF8” value was determined as 0.0093.

B18: the “Phospho-SMAD3 Human Skeletal Muscle GDF8” value was determined as 0.585.

Regarding B19, the “Phospho-SMAD3 Human Skeletal Muscle GDF8” value stood at 0.0068.

B20: the “Phospho-SMAD3 Human Skeletal Muscle GDF8” value came to 0.0632.

Turning to B21, the “Phospho-SMAD3 Human Skeletal Muscle GDF8” value worked out at 0.0193.

(Values after patent US20210380703A1 (RIGEL PHARMACEUTICALS, published 2021).)
